Measured values as given in publication PMC4188581 (2014).

Molecular target: CDK2 (Homo sapiens, UniProt P24941)
Assay: SPR

With LAALS (60 uM ATP) [LAALS peptide] the Kd was 61 µM.
